In publication PMC9482650, “Quantitative fragmentomics allow affinity mapping of interactomes” (Nature Communications, 2022):

T1: APBA3_1, O96018
T1 sequence (O96018 389-490, limits assumed, looked up): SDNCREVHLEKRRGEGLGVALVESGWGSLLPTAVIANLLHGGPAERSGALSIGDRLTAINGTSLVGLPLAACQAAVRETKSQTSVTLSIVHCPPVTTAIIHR

T2: LNX2_3, Q8N448
T2 sequence (Q8N448 463-564, limits assumed, looked up): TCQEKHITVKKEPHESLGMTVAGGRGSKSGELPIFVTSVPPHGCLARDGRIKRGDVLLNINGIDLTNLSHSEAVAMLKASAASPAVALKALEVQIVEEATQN

T3: SNTG2, Q9NY99
T3 sequence (Q9NY99 68-166, limits assumed, looked up): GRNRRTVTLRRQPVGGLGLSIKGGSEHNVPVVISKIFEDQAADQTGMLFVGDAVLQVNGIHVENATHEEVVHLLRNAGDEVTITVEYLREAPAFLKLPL

T4: ARHGEF11, O15085
T4 sequence (O15085 42-136, limits assumed, looked up): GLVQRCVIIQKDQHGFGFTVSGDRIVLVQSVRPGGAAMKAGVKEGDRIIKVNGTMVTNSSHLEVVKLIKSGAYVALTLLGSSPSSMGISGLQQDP

T5: HTRA4, P83105
T5 sequence (P83105 378-476, limits assumed, looked up): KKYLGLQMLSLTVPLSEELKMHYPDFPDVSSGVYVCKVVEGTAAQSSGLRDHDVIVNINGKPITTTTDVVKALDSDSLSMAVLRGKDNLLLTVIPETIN

T6: TIAM2, Q8IVF5
T6 sequence (Q8IVF5 885-986, limits assumed, looked up): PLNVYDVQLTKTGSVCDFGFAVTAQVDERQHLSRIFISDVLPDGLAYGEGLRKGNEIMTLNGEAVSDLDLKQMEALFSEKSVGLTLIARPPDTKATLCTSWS

T7: LIN7C, Q9NUP9
T7 sequence (Q9NUP9 88-185, limits assumed, looked up): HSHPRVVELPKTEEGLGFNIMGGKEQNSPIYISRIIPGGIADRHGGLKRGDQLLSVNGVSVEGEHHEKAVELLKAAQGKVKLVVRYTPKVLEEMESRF

T8: PDZD2_2, O15018
T8 sequence (O15018 329-429, limits assumed, looked up): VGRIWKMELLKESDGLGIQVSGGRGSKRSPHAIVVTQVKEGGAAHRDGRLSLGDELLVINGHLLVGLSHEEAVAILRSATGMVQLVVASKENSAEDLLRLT

T9: NHERF3_4, Q5T2W1
T9 sequence (Q5T2W1 373-468, limits assumed, looked up): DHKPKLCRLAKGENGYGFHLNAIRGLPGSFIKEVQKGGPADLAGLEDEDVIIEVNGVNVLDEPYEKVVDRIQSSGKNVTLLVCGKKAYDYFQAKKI

T10: PDZRN3_1, Q9UPQ7
T10 sequence (Q9UPQ7 244-349, limits assumed, looked up): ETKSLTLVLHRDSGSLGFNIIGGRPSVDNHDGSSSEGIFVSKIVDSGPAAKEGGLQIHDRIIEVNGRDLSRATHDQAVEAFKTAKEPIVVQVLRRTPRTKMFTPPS

T11: SNTB1, Q13884
T11 sequence (Q13884 107-205, limits assumed, looked up): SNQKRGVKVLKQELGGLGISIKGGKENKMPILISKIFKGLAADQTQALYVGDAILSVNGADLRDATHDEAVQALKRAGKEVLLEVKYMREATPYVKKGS

T12: GRIP1_4, Q9Y3R0
T12 sequence (Q9Y3R0 467-571, limits assumed, looked up): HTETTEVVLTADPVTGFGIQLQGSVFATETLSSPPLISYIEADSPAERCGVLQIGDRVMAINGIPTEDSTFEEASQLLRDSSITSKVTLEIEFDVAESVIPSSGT


How the values were obtained:
Test in all cases: holdup assay
Set-up in all cases: key: below the threshold = too weak to quantify, mostly under pKd 3.1 to 4
Settings in all cases: plain residues with an end cap or a label only (N-terminal biotin on a linker: ado-ado)
APBA3_1, O96018 = target: T1, APBA3_1, O96018
LAP2, Q96RT1 = target: LAP2, Q96RT1
LNX2_3, Q8N448 = target: T2, LNX2_3, Q8N448
Inadl_6, Q8NI35 = target: Inadl_6, Q8NI35
LNX1_3, Q8TBB1 = target: LNX1_3, Q8TBB1
SNX27, Q96L92 = target: SNX27, Q96L92
TJP1_3, Q07157 = target: TJP1_3, Q07157
SNTG2, Q9NY99 = target: T3, SNTG2, Q9NY99
SCRIB_2, Q14160 = target: SCRIB_2, Q14160
IL16_4, Q14005 = target: IL16_4, Q14005
ARHGEF11, O15085 = target: T4, ARHGEF11, O15085
LNX1_2, Q8TBB1 = target: LNX1_2, Q8TBB1
Inadl_3, Q8NI35 = target: Inadl_3, Q8NI35
HTRA4, P83105 = target: T5, HTRA4, P83105
TIAM2, Q8IVF5 = target: T6, TIAM2, Q8IVF5
LIN7C, Q9NUP9 = target: T7, LIN7C, Q9NUP9
FRMPD2_2, Q68DX3 = target: FRMPD2_2, Q68DX3
DLG1_3, Q12959 = target: DLG1_3, Q12959
PDZD2_2, O15018 = target: T8, PDZD2_2, O15018
NHERF3_4, Q5T2W1 = target: T9, NHERF3_4, Q5T2W1
PDZRN3_1, Q9UPQ7 = target: T10, PDZRN3_1, Q9UPQ7
SNTB1, Q13884 = target: T11, SNTB1, Q13884
GRIP1_4, Q9Y3R0 = target: T12, GRIP1_4, Q9Y3R0
DLG2_2, Q15700 = target: DLG2_2, Q15700
MAGI2_4, Q86UL8 = target: MAGI2_4, Q86UL8
AHNAK1, Q09666 = target: AHNAK1, Q09666
Chain of AHNAK1, Q09666 (Q09666 4-100): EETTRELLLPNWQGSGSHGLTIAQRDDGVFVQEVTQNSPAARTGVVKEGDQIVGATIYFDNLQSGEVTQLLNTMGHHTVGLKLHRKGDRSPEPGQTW

Chain of LAP2, Q96RT1 (Q96RT1 other isoform, or with tags, fused parts or gaps): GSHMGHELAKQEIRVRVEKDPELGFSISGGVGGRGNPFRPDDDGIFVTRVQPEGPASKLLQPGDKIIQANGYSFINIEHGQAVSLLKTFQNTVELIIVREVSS
Chain of IL16_4, Q14005 (Q14005 1229-1329): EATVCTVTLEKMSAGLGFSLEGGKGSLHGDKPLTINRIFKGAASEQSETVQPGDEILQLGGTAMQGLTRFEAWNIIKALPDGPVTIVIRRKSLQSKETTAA
Chain of DLG1_3, Q12959 (Q12959 457-571): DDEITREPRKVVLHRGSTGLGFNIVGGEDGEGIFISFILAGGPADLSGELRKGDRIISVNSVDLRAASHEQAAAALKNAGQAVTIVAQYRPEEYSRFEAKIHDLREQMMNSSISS
Chain of DLG2_2, Q15700 (Q15700 189-283): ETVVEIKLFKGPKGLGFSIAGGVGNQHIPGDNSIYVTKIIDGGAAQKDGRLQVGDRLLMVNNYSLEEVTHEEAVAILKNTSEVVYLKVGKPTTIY
Chain of SCRIB_2, Q14160 (Q14160 857-960): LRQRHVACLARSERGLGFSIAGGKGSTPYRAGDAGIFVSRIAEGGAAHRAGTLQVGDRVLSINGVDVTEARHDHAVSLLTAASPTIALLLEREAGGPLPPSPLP
Chain of Inadl_3, Q8NI35 (Q8NI35 359-469): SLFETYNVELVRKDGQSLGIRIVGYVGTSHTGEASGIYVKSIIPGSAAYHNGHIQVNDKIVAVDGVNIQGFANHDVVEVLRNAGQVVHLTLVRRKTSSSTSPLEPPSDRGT
Chain of MAGI2_4, Q86UL8 (Q86UL8 772-865): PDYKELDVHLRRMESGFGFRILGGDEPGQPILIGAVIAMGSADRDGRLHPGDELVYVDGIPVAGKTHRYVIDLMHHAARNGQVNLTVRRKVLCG
Chain of LNX1_2, Q8TBB1 (Q8TBB1 371-470): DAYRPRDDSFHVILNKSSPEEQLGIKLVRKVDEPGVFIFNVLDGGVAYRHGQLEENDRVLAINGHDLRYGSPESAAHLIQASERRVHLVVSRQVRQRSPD
Chain of LNX1_3, Q8TBB1 (Q8TBB1 500-596): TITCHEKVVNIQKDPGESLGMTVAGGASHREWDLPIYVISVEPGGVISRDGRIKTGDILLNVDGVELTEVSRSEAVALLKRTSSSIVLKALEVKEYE
Chain of FRMPD2_2, Q68DX3 (Q68DX3 944-1038): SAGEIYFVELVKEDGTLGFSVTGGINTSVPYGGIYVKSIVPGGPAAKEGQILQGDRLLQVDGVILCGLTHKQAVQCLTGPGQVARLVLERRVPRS
Chain of Inadl_6, Q8NI35 (Q8NI35 1058-1167): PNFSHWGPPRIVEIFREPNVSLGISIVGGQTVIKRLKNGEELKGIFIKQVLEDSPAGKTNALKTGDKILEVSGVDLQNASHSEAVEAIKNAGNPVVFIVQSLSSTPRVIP
Chain of TJP1_3, Q07157 (Q07157 416-512): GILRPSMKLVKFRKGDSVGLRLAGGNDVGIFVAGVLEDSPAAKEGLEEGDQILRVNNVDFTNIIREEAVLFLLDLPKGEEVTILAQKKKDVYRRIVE

| pKd (APBA3_1, O96018) | pKd (LAP2, Q96RT1) | pKd (LNX2_3, Q8N448) | pKd (Inadl_6, Q8NI35) | pKd (LNX1_3, Q8TBB1) | pKd (SNX27, Q96L92) | pKd (TJP1_3, Q07157) | pKd (SNTG2, Q9NY99) | pKd (SCRIB_2, Q14160) | pKd (IL16_4, Q14005) | pKd (ARHGEF11, O15085) | pKd (LNX1_2, Q8TBB1) | pKd (Inadl_3, Q8NI35) | pKd (HTRA4, P83105) | pKd (TIAM2, Q8IVF5) | pKd (LIN7C, Q9NUP9) | pKd (FRMPD2_2, Q68DX3) | pKd (DLG1_3, Q12959) | pKd (PDZD2_2, O15018) | pKd (NHERF3_4, Q5T2W1) | Binder | other results |
| --- | --- | --- | --- | --- | --- | --- | --- | --- | --- | --- | --- | --- | --- | --- | --- | --- | --- | --- | --- | --- | --- |
| below the threshold | below the threshold | below the threshold | below the threshold | below the threshold | 4.04 | below the threshold | 3.64 | below the threshold | below the threshold | 3.9 | below the threshold | below the threshold | 3.94 | below the threshold | below the threshold | below the threshold | 3.56 | 4.57 | below the threshold | KLQNPNQSVV [TYRP1, P17643] | pKd (PDZRN3_1, Q9UPQ7): below the threshold; pKd (SNTB1, Q13884): 3.72; pKd (GRIP1_4, Q9Y3R0): below the threshold; pKd (DLG2_2, Q15700): 3.86; pKd (MAGI2_4, Q86UL8): 3.63; pKd (AHNAK1, Q09666): below the threshold |
| below the threshold | 3.56 | below the threshold | below the threshold | below the threshold | below the threshold | below the threshold | below the threshold | below the threshold | below the threshold | below the threshold | below the threshold | below the threshold | 3.88 | below the threshold | below the threshold | below the threshold | below the threshold | 3.99 | below the threshold | SQPLLVHDDV [KIT, P10721] | pKd (PDZRN3_1, Q9UPQ7): below the threshold; pKd (SNTB1, Q13884): below the threshold; pKd (GRIP1_4, Q9Y3R0): below the threshold; pKd (DLG2_2, Q15700): below the threshold; pKd (MAGI2_4, Q86UL8): below the threshold; pKd (AHNAK1, Q09666): below the threshold |

The remaining lines, values behind:

| Binder | pKd (APBA3_1, O96018) | pKd (LAP2, Q96RT1) | pKd (LNX2_3, Q8N448) | pKd (Inadl_6, Q8NI35) | pKd (LNX1_3, Q8TBB1) | pKd (SNX27, Q96L92) | pKd (TJP1_3, Q07157) | pKd (SNTG2, Q9NY99) | pKd (SCRIB_2, Q14160) | pKd (IL16_4, Q14005) | pKd (ARHGEF11, O15085) | pKd (LNX1_2, Q8TBB1) | pKd (Inadl_3, Q8NI35) | pKd (HTRA4, P83105) | pKd (TIAM2, Q8IVF5) | pKd (LIN7C, Q9NUP9) | pKd (FRMPD2_2, Q68DX3) | pKd (DLG1_3, Q12959) | pKd (PDZD2_2, O15018) | pKd (NHERF3_4, Q5T2W1) | other results |
| --- | --- | --- | --- | --- | --- | --- | --- | --- | --- | --- | --- | --- | --- | --- | --- | --- | --- | --- | --- | --- | --- |
| PKSNSSKEYV [CLDN7, O95471] | below the threshold | below the threshold | below the threshold | below the threshold | below the threshold | below the threshold | below the threshold | below the threshold | below the threshold | below the threshold | below the threshold | below the threshold | below the threshold | below the threshold | below the threshold | 4.06 | below the threshold | below the threshold | 3.82 | below the threshold | pKd (PDZRN3_1, Q9UPQ7): below the threshold; pKd (SNTB1, Q13884): below the threshold; pKd (GRIP1_4, Q9Y3R0): below the threshold; pKd (DLG2_2, Q15700): below the threshold; pKd (MAGI2_4, Q86UL8): below the threshold; pKd (AHNAK1, Q09666): below the threshold |
| EFKQTSSFLV [JAM1, Q9Y624] | below the threshold | below the threshold | below the threshold | below the threshold | below the threshold | below the threshold | below the threshold | below the threshold | below the threshold | below the threshold | below the threshold | 4.26 | 4.65 | 4.05 | 4.14 | below the threshold | below the threshold | below the threshold | 3.72 | 3.51 | pKd (PDZRN3_1, Q9UPQ7): below the threshold; pKd (SNTB1, Q13884): below the threshold; pKd (GRIP1_4, Q9Y3R0): below the threshold; pKd (DLG2_2, Q15700): below the threshold; pKd (MAGI2_4, Q86UL8): 4.3; pKd (AHNAK1, Q09666): below the threshold |
